# Reference: article PMC3511050 (FEBS letters, 2012)
# T1: SufE (E. coli), P76194
# T1 chain: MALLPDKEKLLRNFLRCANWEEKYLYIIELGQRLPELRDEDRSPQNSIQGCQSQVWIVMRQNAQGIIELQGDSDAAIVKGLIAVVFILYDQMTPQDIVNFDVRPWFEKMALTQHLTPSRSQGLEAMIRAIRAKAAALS
# T2: SufS cysteine desulfurase (E. coli, UniProt P77444 1-406)
# T2 sequence (looked up): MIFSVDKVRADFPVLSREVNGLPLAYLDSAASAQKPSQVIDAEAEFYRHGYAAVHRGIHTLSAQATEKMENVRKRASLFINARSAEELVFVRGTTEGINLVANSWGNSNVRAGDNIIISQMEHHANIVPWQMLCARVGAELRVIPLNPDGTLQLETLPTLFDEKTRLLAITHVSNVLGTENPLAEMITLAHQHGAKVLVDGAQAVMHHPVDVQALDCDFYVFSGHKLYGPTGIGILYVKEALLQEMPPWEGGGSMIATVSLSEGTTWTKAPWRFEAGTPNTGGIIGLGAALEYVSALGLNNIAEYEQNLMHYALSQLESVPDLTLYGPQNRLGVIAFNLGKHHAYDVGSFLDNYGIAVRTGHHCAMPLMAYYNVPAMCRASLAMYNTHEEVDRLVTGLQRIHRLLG
# B1: SufE, P76194 1-138 (natural protein)
# chain: T1 chain
# B2: SufE where C51 has been covalently blocked with iodoacetamide (natural protein, E. coli, UniProt P76194 1-138, looked up)
# chain: T1 chain
# modifications: C51 covalently blocked with iodoacetamide
# What was measured:
# [1] = biological target: SufE (Escherichia coli) (UniProt P76194); test: SPR; settings: cited from earlier work
# [2] = biological target: T1, SufE (E. coli), P76194; test: cross-linking; settings: remark: other sources report otherwise
# [3] = biological target: T2, SufS cysteine desulfurase; test: inhibition of enzyme activity
molecule,measurement,setting,value
SufS (from UniProt P77444),Kd,[1],360 nM
B1,percent of total protein as disulfide-bonded homodimer (with or without H2O2),[2],18%
same,stoichiometry N,[2],2
B2,Ki,[3],190 nM
